Assay results: PMC4790445 (Nature structural & molecular biology, 2015)

Target: WT EGFR kinase (residues 696-1022) (human, UniProt P00533 696-1022)
Assay: kinase inhibition kinetics

- Ki: 10 to 20 nM
B1: unphosphorylated Mig6 segment 1+2 (residues 330-399) (domain or fragment, human, UniProt Q9UJM3 330-399, looked up)
chain: SRTPSPKSLPSYLNGVMPPTQSFAPDPKYVSSKALQRQNSEGSASKVPCILPIIENGKKVSSTHYYLLPE
